Test results from publication PMC6614540.

How the values were obtained:
[1] = biological target: Gh-TDH F159D mutant (Grimontia hollisae)
[2] = biological target: Gh-TDH F159D mutant (Grimontia hollisae); assay: native gel or EMSA; native PAGE, 10% polyacrylamide gel, no SDS, 4 °C, running buffer 90 mM Tris-base, 2.5 mM EDTA, 80 mM boric acid pH 8.0, 90 V for 3 h, Coomassie stain
[3] = biological target: Gh-TDH F159D mutant (Grimontia hollisae); assay: AUC; 1 mg/mL protein in 20 mM Tris-HCl pH 7.2, 42,000 rpm, 20 °C, 280 nm; c(s) distribution and apparent molecular mass
[4] = biological target: Gh-TDH D78A mutant (Grimontia hollisae); assay: native gel or EMSA; native PAGE, 10% polyacrylamide gel, no SDS, 4 °C, running buffer 90 mM Tris-base, 2.5 mM EDTA, 80 mM boric acid pH 8.0, 90 V for 3 h, Coomassie stain
[5] = biological target: Gh-TDH Y53D/F159D double mutant (Grimontia hollisae)
[6] = biological target: Grimontia hollisae thermostable direct hemolysin, wild type (Grimontia hollisae); assay: AUC; 1 mg/mL protein in 20 mM Tris-HCl pH 7.2, 42,000 rpm, 20 °C, 280 nm; c(s) distribution and apparent molecular mass
[7] = biological target: Gh-TDH Y53D mutant (Grimontia hollisae)
[8] = biological target: Gh-TDH Y53D mutant (Grimontia hollisae); assay: native gel or EMSA; native PAGE, 10% polyacrylamide gel, no SDS, 4 °C, running buffer 90 mM Tris-base, 2.5 mM EDTA, 80 mM boric acid pH 8.0, 90 V for 3 h, Coomassie stain
[9] = biological target: Gh-TDH Y53D mutant (Grimontia hollisae); assay: AUC; 1 mg/mL protein in 20 mM Tris-HCl pH 7.2, 42,000 rpm, 20 °C, 280 nm; c(s) distribution and apparent molecular mass

Question: With Gh-TDH F159D mutant (natural protein) as the substance, how does the hemolytic activity on rabbit erythrocytes, decrease against Gh-TDH^WT [1] read?
Answer: 10 fold

Question: What about the stoichiometry N [2] of the same substance?
Answer: 2

Question: What about the stoichiometry N [3] of the same substance?
Answer: 2

Question: Which stoichiometry N [4] does the source give for Gh-TDH D78A mutant (natural protein) here?
Answer: 4

Question: How did the hemolytic activity on rabbit erythrocytes, drop against Gh-TDH^WT [5] turn out when “Gh-TDH Y53D/F159D double mutant (natural protein)” was run?
Answer: 200 fold

Question: For “Grimontia hollisae thermostable direct hemolysin, wild type (natural protein)”, which stoichiometry N [6] is on record?
Answer: 4

Question: How did the hemolytic activity on rabbit erythrocytes, decrease against Gh-TDH^WT [7] turn out when Gh-TDH Y53D mutant (natural protein) was run?
Answer: 20 fold

Question: What about the stoichiometry N [8] of the same substance?
Answer: 2

Question: What about the stoichiometry N [9] of the same substance?
Answer: 2
